The values that follow come from PMC6270756.

The term stoichiometry N denotes a count of units in the complex or per binding partner.

The target of this test is Nucleoside 2'-deoxyribosyltransferase from Bacillus psychrosaccharolyticus CECT 4074 (Bacillus psychrosaccharolyticus). Put plainly: SEC; pure BpNDT on Sepharose 12 10/300 GL column (GE Healthcare); native mass estimated.

As to “Nucleoside 2'-deoxyribosyltransferase from Bacillus psychrosaccharolyticus CECT 4074 (enzyme)”, the stoichiometry N was 6.
